Source: article PMC7570257 (Biochemistry, 2015)

B1: chimera tPRMT8C (β15 of tPRMT8 replaced with that of Hmt1) (domain or fragment, human | yeast)
chain: MSKLLNPEEMTSRDYYFDSYAHFGIHEEMLKDEVRTLTYRNSMYHNKHVFKDKVVLDVGSGTGILSMFAAKAGAKKVFGIECSSISDYSEKIIKANHLDNIITIFKGKVEEVELPVEKVDIIISEWMGYCLFYESMLNTVIFARDKWLKPGGLMFPDRAALYVVAIEDRQYKDFKIHWWENVYGFDMTCIRDVAMKEPLVDIVDPKQVVTNACLIKEVDIYTVKTEELSFTSAFCLQIQRNDYVHALVTYFNIEFTKCHKKMGFSTAPDAPYTHWKQTVFYLEDYLTVRRGEEIYGTISMKPNAKNVRDLDFTVDLDFKIDGNSRSRKNEGSYLMH
B2: EGFP-tagged tPRMT8 (domain or fragment, human, UniProt Q9NR22 61-394, looked up)
chain: MSKLLNPEEMTSRDYYFDSYAHFGIHEEMLKDEVRTLTYRNSMYHNKHVFKDKVVLDVGSGTGILSMFAAKAGAKKVFGIECSSISDYSEKIIKANHLDNIITIFKGKVEEVELPVEKVDIIISEWMGYCLFYESMLNTVIFARDKWLKPGGLMFPDRAALYVVAIEDRQYKDFKIHWWENVYGFDMTCIRDVAMKEPLVDIVDPKQVVTNACLIKEVDIYTVKTEELSFTSAFCLQIQRNDYVHALVTYFNIEFTKCHKKMGFSTAPDAPYTHWKQTVFYLEDYLTVRRGEEIYGTISMKPNAKNVRDLDFTVDLDFKGQLCETSVSNDYKMR

What was measured:
[1] = target: the molecule itself; test: AUC
[2] = target: the molecule itself; test: native gel or EMSA

| Protein | stoichiometry N [1] | stoichiometry N [2] |
| --- | --- | --- |
| B1 | 4 |  |
| B2 |  | 4 |
